Experimental data reported in patent publication US20180155451A1 (published 2018).

T1: FcγRIIb extracellular domain with C-terminal His tag (human, UniProt P31994 43-217)
T1 construct: extracellular domain; Soluble receptor expressed in FreeStyle293 cells, used as analyte in Biacore; also called FcgRIIb; CD32B; not shown: His tag at the C terminus
T1 sequence (looked up): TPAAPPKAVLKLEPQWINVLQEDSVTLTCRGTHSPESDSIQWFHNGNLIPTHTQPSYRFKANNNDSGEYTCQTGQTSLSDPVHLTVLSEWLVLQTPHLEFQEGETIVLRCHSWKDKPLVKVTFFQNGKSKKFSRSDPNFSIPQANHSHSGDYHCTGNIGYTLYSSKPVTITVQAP

B1: GpH7-A5/GpH7-B3 variant P271_07I/GpL16-k0 (antibody, human IgG1, kappa)
heavy 1: not shown
heavy 2: not shown
light: DIVMTQSPLSLPVTPGEPASISCQASESLVHSNRNTYLHWYLQKPGQSPQLLIYKVSNRFSGVPDRFSGSGSGTDFTLKISRVEAEDVGVYYCSQNTHVPPTFGQGTKVEIERTVAAPSVFIFPPSDEQLKSGTASVVCLLNNFYPREAKVQWKVDNALQSGNSQESVTEQDSKDSTYSLSSTLTLSKADYEKHKVYACEVTHQGLSSPVTKSFNRGEC
notes: Heterodimerized anti-glypican-3 IgG1; substitution in only one H chain; also called P271I; He Ab
B2: GpH7-A5/GpH7-B3 variant P271_15Y/GpL16-k0 (antibody, human IgG1, kappa)
heavy 1: not shown
heavy 2: not shown
light: B1 light
notes: Heterodimerized anti-glypican-3 IgG1; substitution in only one H chain; also called P271Y; He Ab
B3: GpH7-A5/GpH7-B3 variant Q295_04F/GpL16-k0 (antibody, human IgG1, kappa)
heavy 1: not shown
heavy 2: not shown
light: B1 light
notes: Heterodimerized anti-glypican-3 IgG1; substitution in only one H chain; also called Q295F; He Ab
B4: GpH7-A5/GpH7-B3 variant P271_11K/GpL16-k0 (antibody, human IgG1, kappa)
heavy 1: not shown
heavy 2: not shown
light: B1 light
notes: Heterodimerized anti-glypican-3 IgG1; substitution in only one H chain; also called P271K; He Ab
B5: GpH7-A5/GpH7-B3 variant P271_12R/GpL16-k0 (antibody, human IgG1, kappa)
heavy 1: not shown
heavy 2: not shown
light: B1 light
notes: Heterodimerized anti-glypican-3 IgG1; substitution in only one H chain; also called P271R; He Ab
B6: GpH7-A5/GpH7-B3 variant Q295_06M/GpL16-k0 (antibody, human IgG1, kappa)
heavy 1: not shown
heavy 2: not shown
light: B1 light
notes: Heterodimerized anti-glypican-3 IgG1; substitution in only one H chain; also called Q295M; He Ab
B7: GpH7-A5/GpH7-B3 variant P271_19Q/GpL16-k0 (antibody, human IgG1, kappa)
heavy 1: not shown
heavy 2: not shown
light: B1 light
notes: Heterodimerized anti-glypican-3 IgG1; substitution in only one H chain; also called P271Q; He Ab
B8: GpH7-A5/GpH7-B3 variant Q295_07I/GpL16-k0 (antibody, human IgG1, kappa)
heavy 1: not shown
heavy 2: not shown
light: B1 light
notes: Heterodimerized anti-glypican-3 IgG1; substitution in only one H chain; also called Q295I; He Ab
B9: GpH7-A5/GpH7-B3 variant P271_20W/GpL16-k0 (antibody, human IgG1, kappa)
heavy 1: not shown
heavy 2: not shown
light: B1 light
notes: Heterodimerized anti-glypican-3 IgG1; substitution in only one H chain; also called P271W; He Ab
B10: GpH7-A5/GpH7-B3 variant Q295_02A/GpL16-k0 (antibody, human IgG1, kappa)
heavy 1: not shown
heavy 2: not shown
light: B1 light
notes: Heterodimerized anti-glypican-3 IgG1; substitution in only one H chain; also called Q295A; He Ab
B11: GpH7-A5/GpH7-B3 variant Q295_05P/GpL16-k0 (antibody, human IgG1, kappa)
heavy 1: not shown
heavy 2: not shown
light: B1 light
notes: Heterodimerized anti-glypican-3 IgG1; substitution in only one H chain; also called Q295P; He Ab
B12: GpH7-A5/GpH7-B3 variant P271_18N/GpL16-k0 (antibody, human IgG1, kappa)
heavy 1: not shown
heavy 2: not shown
light: B1 light
notes: Heterodimerized anti-glypican-3 IgG1; substitution in only one H chain; also called P271N; He Ab
B13: GpH7-A5/GpH7-B3 variant P271_14T/GpL16-k0 (antibody, human IgG1, kappa)
heavy 1: not shown
heavy 2: not shown
light: B1 light
notes: Heterodimerized anti-glypican-3 IgG1; substitution in only one H chain; also called P271T; He Ab
B14: GpH7-A5/GpH7-B3 variant Q295_03V/GpL16-k0 (antibody, human IgG1, kappa)
heavy 1: not shown
heavy 2: not shown
light: B1 light
notes: Heterodimerized anti-glypican-3 IgG1; substitution in only one H chain; also called Q295V; He Ab
B15: GpH7-A5/GpH7-B3 variant P271_13S/GpL16-k0 (antibody, human IgG1, kappa)
heavy 1: not shown
heavy 2: not shown
light: B1 light
notes: Heterodimerized anti-glypican-3 IgG1; substitution in only one H chain; also called P271S; He Ab
B16: GpH7-A5/GpH7-B3 variant P271_16H/GpL16-k0 (antibody, human IgG1, kappa)
heavy 1: not shown
heavy 2: not shown
light: B1 light
notes: Heterodimerized anti-glypican-3 IgG1; substitution in only one H chain; also called P271H; He Ab
B17: GpH7-B3 variant S324_01G/GpL16-k0 (homodimerized antibody, Ho Ab) (antibody, human IgG1, kappa)
heavy: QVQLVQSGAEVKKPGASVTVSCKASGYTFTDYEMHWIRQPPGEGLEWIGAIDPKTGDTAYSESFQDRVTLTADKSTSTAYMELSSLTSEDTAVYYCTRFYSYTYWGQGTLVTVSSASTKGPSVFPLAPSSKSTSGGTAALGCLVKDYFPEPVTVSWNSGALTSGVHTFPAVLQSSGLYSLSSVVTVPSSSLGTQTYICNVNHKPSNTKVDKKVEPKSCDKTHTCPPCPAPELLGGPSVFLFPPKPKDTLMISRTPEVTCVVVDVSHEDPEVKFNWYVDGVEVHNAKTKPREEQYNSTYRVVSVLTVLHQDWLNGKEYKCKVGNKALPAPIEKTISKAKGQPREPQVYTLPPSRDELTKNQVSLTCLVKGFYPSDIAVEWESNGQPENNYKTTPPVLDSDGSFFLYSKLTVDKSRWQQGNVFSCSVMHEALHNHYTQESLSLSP
light: B1 light
notes: Mutation in both H chains; also called S324_01G Ho Ab
B18: GpH7-B3 variant S324_09D/GpL16-k0 (homodimerized antibody, Ho Ab) (antibody, human IgG1, kappa)
heavy: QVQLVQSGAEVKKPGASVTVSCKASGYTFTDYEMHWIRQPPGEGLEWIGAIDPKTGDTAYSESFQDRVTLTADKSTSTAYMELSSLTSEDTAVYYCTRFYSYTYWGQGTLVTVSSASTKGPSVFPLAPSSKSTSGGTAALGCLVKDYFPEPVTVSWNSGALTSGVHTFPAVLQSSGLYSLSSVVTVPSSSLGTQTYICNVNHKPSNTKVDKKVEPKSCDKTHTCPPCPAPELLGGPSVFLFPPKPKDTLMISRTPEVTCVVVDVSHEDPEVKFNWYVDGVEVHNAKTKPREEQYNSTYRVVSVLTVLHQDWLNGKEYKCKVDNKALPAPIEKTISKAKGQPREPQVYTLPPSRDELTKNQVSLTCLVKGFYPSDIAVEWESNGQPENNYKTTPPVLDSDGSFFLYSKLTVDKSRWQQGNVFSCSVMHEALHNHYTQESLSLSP
light: B1 light
notes: Mutation in both H chains; also called S324_09D Ho Ab
B19: GpH7-B3 variant S239_18N/GpL16-k0 (homodimerized antibody, Ho Ab) (antibody, human IgG1, kappa)
heavy: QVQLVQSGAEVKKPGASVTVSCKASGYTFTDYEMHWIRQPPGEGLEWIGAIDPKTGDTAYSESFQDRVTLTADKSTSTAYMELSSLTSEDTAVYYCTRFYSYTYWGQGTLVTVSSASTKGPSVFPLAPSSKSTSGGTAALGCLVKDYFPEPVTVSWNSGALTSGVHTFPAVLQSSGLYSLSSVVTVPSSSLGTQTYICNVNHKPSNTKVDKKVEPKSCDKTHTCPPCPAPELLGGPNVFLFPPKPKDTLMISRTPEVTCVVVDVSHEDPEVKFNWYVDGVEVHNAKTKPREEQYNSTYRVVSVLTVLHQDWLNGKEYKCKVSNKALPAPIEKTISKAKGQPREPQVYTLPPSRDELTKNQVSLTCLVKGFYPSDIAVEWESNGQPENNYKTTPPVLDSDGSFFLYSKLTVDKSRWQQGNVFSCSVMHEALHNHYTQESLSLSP
light: B1 light
notes: Mutation in both H chains; also called S239_18N Ho Ab
B20: GpH7-B3 variant S324_20W/GpL16-k0 (homodimerized antibody, Ho Ab) (antibody, human IgG1, kappa)
heavy: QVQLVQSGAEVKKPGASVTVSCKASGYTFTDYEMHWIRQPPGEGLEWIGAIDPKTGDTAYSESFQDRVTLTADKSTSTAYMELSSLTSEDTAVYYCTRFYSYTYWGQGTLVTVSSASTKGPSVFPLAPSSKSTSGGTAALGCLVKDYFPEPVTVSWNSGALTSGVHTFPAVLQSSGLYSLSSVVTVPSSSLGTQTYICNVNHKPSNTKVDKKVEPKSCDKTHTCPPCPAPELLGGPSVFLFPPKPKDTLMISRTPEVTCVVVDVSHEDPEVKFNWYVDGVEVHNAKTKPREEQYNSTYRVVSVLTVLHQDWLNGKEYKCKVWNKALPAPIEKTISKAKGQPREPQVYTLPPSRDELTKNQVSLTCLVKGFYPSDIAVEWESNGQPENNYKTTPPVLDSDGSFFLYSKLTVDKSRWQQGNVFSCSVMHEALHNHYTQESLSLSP
light: B1 light
notes: Mutation in both H chains; also called S324_20W Ho Ab

Biological target: T1, FcγRIIb extracellular domain with …
Test: SPR (Biacore), antibody captured via antigen peptide, FcγR as analyte; binding relative to GpH7-A5/GpH7-B3/GpL16-k0 = 100

He/Con_2b	Binder
76.8 % of control (GpH7-A5/GpH7-B3/GpL16-k0 = 100)	B1
52.3 % of control (GpH7-A5/GpH7-B3/GpL16-k0 = 100)	B2
64.7 % of control (GpH7-A5/GpH7-B3/GpL16-k0 = 100)	B3
90.2 % of control (GpH7-A5/GpH7-B3/GpL16-k0 = 100)	B4
86.5 % of control (GpH7-A5/GpH7-B3/GpL16-k0 = 100)	B5
90.4 % of control (GpH7-A5/GpH7-B3/GpL16-k0 = 100)	B6
88.6 % of control (GpH7-A5/GpH7-B3/GpL16-k0 = 100)	B7
84.3 % of control (GpH7-A5/GpH7-B3/GpL16-k0 = 100)	B8
58.1 % of control (GpH7-A5/GpH7-B3/GpL16-k0 = 100)	B9
79.7 % of control (GpH7-A5/GpH7-B3/GpL16-k0 = 100)	B10
67.5 % of control (GpH7-A5/GpH7-B3/GpL16-k0 = 100)	B11
93.3 % of control (GpH7-A5/GpH7-B3/GpL16-k0 = 100)	B12
95.4 % of control (GpH7-A5/GpH7-B3/GpL16-k0 = 100)	B13
75.7 % of control (GpH7-A5/GpH7-B3/GpL16-k0 = 100)	B14
87.6 % of control (GpH7-A5/GpH7-B3/GpL16-k0 = 100)	B15
67.9 % of control (GpH7-A5/GpH7-B3/GpL16-k0 = 100)	B16

Biological target: T2, FcγRIa extracellular domain with C-terminal His tag (human, UniProt P12314 16-292)
T2 construct: extracellular domain; Soluble receptor expressed in FreeStyle293 cells, used as analyte in Biacore; also called FcgRI; CD64; not shown: His tag at the C terminus
Test: as above

T2 sequence (P12314 16-292): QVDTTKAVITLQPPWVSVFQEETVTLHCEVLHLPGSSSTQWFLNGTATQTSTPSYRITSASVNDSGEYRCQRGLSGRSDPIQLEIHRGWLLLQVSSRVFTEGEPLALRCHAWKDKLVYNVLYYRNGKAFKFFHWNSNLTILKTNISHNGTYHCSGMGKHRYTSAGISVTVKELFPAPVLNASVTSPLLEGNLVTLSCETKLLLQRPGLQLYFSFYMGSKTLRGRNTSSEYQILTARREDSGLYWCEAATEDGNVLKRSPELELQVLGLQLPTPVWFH

He/Con_1a	Binder
102 % of control (GpH7-A5/GpH7-B3/GpL16-k0 = 100)	B1
103 % of control (GpH7-A5/GpH7-B3/GpL16-k0 = 100)	B2
102 % of control (GpH7-A5/GpH7-B3/GpL16-k0 = 100)	B3
103 % of control (GpH7-A5/GpH7-B3/GpL16-k0 = 100)	B4
102 % of control (GpH7-A5/GpH7-B3/GpL16-k0 = 100)	B5
104 % of control (GpH7-A5/GpH7-B3/GpL16-k0 = 100)	B6
103 % of control (GpH7-A5/GpH7-B3/GpL16-k0 = 100)	B7
103 % of control (GpH7-A5/GpH7-B3/GpL16-k0 = 100)	B8
103 % of control (GpH7-A5/GpH7-B3/GpL16-k0 = 100)	B9
104 % of control (GpH7-A5/GpH7-B3/GpL16-k0 = 100)	B10
103 % of control (GpH7-A5/GpH7-B3/GpL16-k0 = 100)	B11
103 % of control (GpH7-A5/GpH7-B3/GpL16-k0 = 100)	B12
102 % of control (GpH7-A5/GpH7-B3/GpL16-k0 = 100)	B13
104 % of control (GpH7-A5/GpH7-B3/GpL16-k0 = 100)	B14
102 % of control (GpH7-A5/GpH7-B3/GpL16-k0 = 100)	B15
102 % of control (GpH7-A5/GpH7-B3/GpL16-k0 = 100)	B16

Biological target: T3, FcγRIIIa extracellular domain with C-terminal His tag (human, UniProt P08637 17-208)
T3 construct: extracellular domain; also called 3a; FcgRIIIa
Test: SPR (Biacore), antibody captured on antigen-peptide chip, FcγR analyte, relative binding

T3 sequence (P08637 17-208): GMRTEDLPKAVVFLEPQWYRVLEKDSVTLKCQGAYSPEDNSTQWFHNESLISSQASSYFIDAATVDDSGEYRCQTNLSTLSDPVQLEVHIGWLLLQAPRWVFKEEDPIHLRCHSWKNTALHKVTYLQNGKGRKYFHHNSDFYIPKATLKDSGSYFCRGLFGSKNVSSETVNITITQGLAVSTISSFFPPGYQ

Ho/Con_3a	Binder
119 % of GpH7-B3/GpL16-k0 (=100)	B17
101 % of GpH7-B3/GpL16-k0 (=100)	B18
116 % of GpH7-B3/GpL16-k0 (=100)	B19
102 % of GpH7-B3/GpL16-k0 (=100)	B20
